Laboratory results as given in US20220324909A1 (COHBAR, published 2022).
Non-standard residues stand in square brackets, D forms with d. Primed or numbered codes have the meaning given here. No end group written: not given here. PEG12(3) = not defined here

target: T1, Apelin Receptor (APJ) stably overexpressed in CHO-K1 AGTRL1 Gi cells (human, UniProt P35414 1-380); experiment: cell-based or functional assay
T1 sequence (looked up): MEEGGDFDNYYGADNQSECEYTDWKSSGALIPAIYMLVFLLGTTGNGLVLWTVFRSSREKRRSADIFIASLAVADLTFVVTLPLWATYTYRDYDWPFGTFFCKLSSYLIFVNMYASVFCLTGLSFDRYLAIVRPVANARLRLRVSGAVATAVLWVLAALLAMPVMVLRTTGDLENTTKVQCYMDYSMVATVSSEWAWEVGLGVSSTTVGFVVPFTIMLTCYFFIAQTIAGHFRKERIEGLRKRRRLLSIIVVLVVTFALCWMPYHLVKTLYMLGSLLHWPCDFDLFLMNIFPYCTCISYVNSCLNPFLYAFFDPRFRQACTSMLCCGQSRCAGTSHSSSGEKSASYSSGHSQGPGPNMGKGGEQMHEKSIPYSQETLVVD

Binder | cAMP levels, Percent of Pyr-Apelin-13 Control Activity (10 µM peptide, 10 µM forskolin)
RMMGMVF [SEQ ID NO 50] | 8 % of Pyr-Apelin-13 control
RREMVYQCLEG[dA] [SEQ ID NO 26] | 29 % of Pyr-Apelin-13 control
Ac-RRMMGMVFQSLCG[dA] [SEQ ID NO 61] | 1 % of Pyr-Apelin-13 control
RXLLGLVFQSLCGA ((AIB) aminoisobutyric acid at position 2; (dA) D-alanine at position 14) [SEQ ID NO 35] | 8 % of Pyr-Apelin-13 control
RRMVYQCLEG[dA] [SEQ ID NO 24] | 16 % of Pyr-Apelin-13 control
RMMGMVFQ [SEQ ID NO 51] | 24 % of Pyr-Apelin-13 control
RRMGYQCLEG[dA] [SEQ ID NO 28] | 3 % of Pyr-Apelin-13 control
RRMMGMV [SEQ ID NO 56] | -2 % of Pyr-Apelin-13 control
RRLLGLVFQSLCG[dA] [SEQ ID NO 33] | 27 % of Pyr-Apelin-13 control
RRMMGMVFQSLCG[dA]-NH2 [SEQ ID NO 62] | 27 % of Pyr-Apelin-13 control
RRMMGMVFQSL [SEQ ID NO 60] | 16 % of Pyr-Apelin-13 control
RXMMGMVFQSLCGA ((AIB) aminoisobutyric acid at position 2; (dA) D-alanine at position 14) [SEQ ID NO 34] | 61 % of Pyr-Apelin-13 control
RRMMGMVFQ [SEQ ID NO 58] | 5 % of Pyr-Apelin-13 control
RRMEVYQCLCG[dA] (cysteine pairing not given here) [SEQ ID NO 31] | 2 % of Pyr-Apelin-13 control
MMGMV [SEQ ID NO 44] | 5 % of Pyr-Apelin-13 control
RMMGMVFQSL [SEQ ID NO 53] | 6 % of Pyr-Apelin-13 control
Ac-RRMMGMVFQSLCG[dA]-NH2 [SEQ ID NO 63] | 21 % of Pyr-Apelin-13 control
RMMGMVFQS [SEQ ID NO 52] | 15 % of Pyr-Apelin-13 control
MMGMVF [SEQ ID NO 45] | 10 % of Pyr-Apelin-13 control
RRMVFQCLEG[dA] [SEQ ID NO 23] | -4 % of Pyr-Apelin-13 control

Binder | cAMP levels, Percent of Pyr-Apelin-13 Control Activity (10 µM peptide, 10 µM forskolin)
RRMMGMVFQS [SEQ ID NO 59] | -2 % of Pyr-Apelin-13 control
RRLLGLVEQSLCG[dA] [SEQ ID NO 40] | 19 % of Pyr-Apelin-13 control
RRMAYQCLEG[dA] [SEQ ID NO 27] | 9 % of Pyr-Apelin-13 control
RRLLGLVFQSLEG[dA] [SEQ ID NO 41] | 15 % of Pyr-Apelin-13 control
RRMVYQCLCG[dA] (cysteine pairing not given here) [SEQ ID NO 22] | 62 % of Pyr-Apelin-13 control
RMMGMVFQSLCG[dA] [SEQ ID NO 54] | 20 % of Pyr-Apelin-13 control
RRMMGMVEQSLCG[dA] [SEQ ID NO 38] | 12 % of Pyr-Apelin-13 control
RRXXGXVFQCLCGA ((Nle) norleucine at positions 3, 4 and 6; (dA) D-alanine at position 14) [SEQ ID NO 18] | 30 % of Pyr-Apelin-13 control
RRMMGMVF [SEQ ID NO 57] | -1 % of Pyr-Apelin-13 control
RRMMGM [SEQ ID NO 55] | -7 % of Pyr-Apelin-13 control
RREMVYQCLCG[dA] (cysteine pairing not given here) [SEQ ID NO 25] | 3 % of Pyr-Apelin-13 control
RRMMGMVFQCLCG[dA] (cysteine pairing not given here) [SEQ ID NO 8] | 64 % of Pyr-Apelin-13 control
RRMMGMVFQSLSG[dA] [SEQ ID NO 17] | 26 % of Pyr-Apelin-13 control
RRMMGMVFQSLEG[dA] [SEQ ID NO 39] | -13 % of Pyr-Apelin-13 control
RRMMGMVFQCLCG[dA]K(PEG12(3)) (cysteine pairing not given here) [SEQ ID NO 21] | 34 % of Pyr-Apelin-13 control
RRMEVYQCLEG[dA] [SEQ ID NO 32] | 4 % of Pyr-Apelin-13 control
KRRMMGMVFQCLCGA ((PEG12) on the N-terminal K (position 1); (dA) D-alanine at position 15) [SEQ ID NO 20] | 37 % of Pyr-Apelin-13 control
RRMMGMVAQCLEG[dA] [SEQ ID NO 30] | 31 % of Pyr-Apelin-13 control
RRMVFQCLCG[dA] (cysteine pairing not given here) [SEQ ID NO 19] | 27 % of Pyr-Apelin-13 control
RRMMGMVYQCLEG[dA] [SEQ ID NO 29] | 21 % of Pyr-Apelin-13 control

target: ProLink tagged human APJ (Apelin Receptor) in CHO-K1 AGTRL1 β-Arrestin cells (human, UniProt P35414 1-380); experiment: cell-based or functional assay

Binder | β-Arrestin recruitment, Percent of Apelin-13 Control Activity (10 µM peptide)
RMMGMVF [SEQ ID NO 50] | 0 % of Apelin-13 control
RREMVYQCLEG[dA] [SEQ ID NO 26] | 0 % of Apelin-13 control
Ac-RRMMGMVFQSLCG[dA] [SEQ ID NO 61] | 5 % of Apelin-13 control
RXLLGLVFQSLCGA ((AIB) aminoisobutyric acid at position 2; (dA) D-alanine at position 14) [SEQ ID NO 35] | 17 % of Apelin-13 control
RRMVYQCLEG[dA] [SEQ ID NO 24] | -1 % of Apelin-13 control
RMMGMVFQ [SEQ ID NO 51] | 0 % of Apelin-13 control
RRMGYQCLEG[dA] [SEQ ID NO 28] | -1 % of Apelin-13 control
RRMMGMVFQCLSG[dA] [SEQ ID NO 16] | 0 % of Apelin-13 control
RRMMGMV [SEQ ID NO 56] | 0 % of Apelin-13 control
RRLLGLVFQSLCG[dA] [SEQ ID NO 33] | 9 % of Apelin-13 control
RRMMGMVFQSLCG[dA]-NH2 [SEQ ID NO 62] | 2 % of Apelin-13 control
RRMMGMVFQSL [SEQ ID NO 60] | 0 % of Apelin-13 control
RXMMGMVFQSLCGA ((AIB) aminoisobutyric acid at position 2; (dA) D-alanine at position 14) [SEQ ID NO 34] | 8 % of Apelin-13 control
RRMMGMVFQ [SEQ ID NO 58] | 0 % of Apelin-13 control
RRMEVYQCLCG[dA] (cysteine pairing not given here) [SEQ ID NO 31] | 0 % of Apelin-13 control
MMGMV [SEQ ID NO 44] | 0 % of Apelin-13 control
RMMGMVFQSL [SEQ ID NO 53] | 1 % of Apelin-13 control
Ac-RRMMGMVFQSLCG[dA]-NH2 [SEQ ID NO 63] | 9 % of Apelin-13 control
RMMGMVFQS [SEQ ID NO 52] | 0 % of Apelin-13 control
MMGMVF [SEQ ID NO 45] | 0 % of Apelin-13 control
RRMVFQCLEG[dA] [SEQ ID NO 23] | 0 % of Apelin-13 control

Binder | β-Arrestin recruitment, Percent of Apelin-13 Control Activity (10 µM peptide)
RRMMGMVFQS [SEQ ID NO 59] | 0 % of Apelin-13 control
RRLLGLVEQSLCG[dA] [SEQ ID NO 40] | 0 % of Apelin-13 control
RRMAYQCLEG[dA] [SEQ ID NO 27] | -1 % of Apelin-13 control
RRLLGLVFQSLEG[dA] [SEQ ID NO 41] | 0 % of Apelin-13 control
RRMVYQCLCG[dA] (cysteine pairing not given here) [SEQ ID NO 22] | 0 % of Apelin-13 control
RMMGMVFQSLCG[dA] [SEQ ID NO 54] | 1 % of Apelin-13 control
RRMMGMVEQSLCG[dA] [SEQ ID NO 38] | 0 % of Apelin-13 control
RRXXGXVFQCLCGA ((Nle) norleucine at positions 3, 4 and 6; (dA) D-alanine at position 14) [SEQ ID NO 18] | 1 % of Apelin-13 control
RRMMGMVF [SEQ ID NO 57] | 0 % of Apelin-13 control
RRMMGM [SEQ ID NO 55] | 1 % of Apelin-13 control
RREMVYQCLCG[dA] (cysteine pairing not given here) [SEQ ID NO 25] | -1 % of Apelin-13 control
RRMMGMVFQCLCG[dA] (cysteine pairing not given here) [SEQ ID NO 8] | 17 % of Apelin-13 control
RRMMGMVFQSLSG[dA] [SEQ ID NO 17] | 10 % of Apelin-13 control
RRMMGMVFQSLEG[dA] [SEQ ID NO 39] | 0 % of Apelin-13 control
RRMMGMVFQCLCG[dA]K(PEG12(3)) (cysteine pairing not given here) [SEQ ID NO 21] | 1 % of Apelin-13 control
RRMEVYQCLEG[dA] [SEQ ID NO 32] | 0 % of Apelin-13 control
KRRMMGMVFQCLCGA ((PEG12) on the N-terminal K (position 1); (dA) D-alanine at position 15) [SEQ ID NO 20] | 1 % of Apelin-13 control
RRMMGMVAQCLEG[dA] [SEQ ID NO 30] | -1 % of Apelin-13 control
RRMVFQCLCG[dA] (cysteine pairing not given here) [SEQ ID NO 19] | 1 % of Apelin-13 control
RRMMGMVYQCLEG[dA] [SEQ ID NO 29] | 0 % of Apelin-13 control
